Kd data for 6 molecules are collected here from patent US20210388110A1 (published 2021).

In this experiment the target is T1, soluble human CD3ε chain (human, UniProt P07766 23-126, limits assumed).
T1 construct: also called human CD3 epsilon chain
Kind of experiment: SPR (Biacore), soluble human CD3ε chain. (In SPR one partner is held on a chip, and binding of the other changes the refractive index at the surface.)

T1 sequence (P07766 23-126 limits assumed): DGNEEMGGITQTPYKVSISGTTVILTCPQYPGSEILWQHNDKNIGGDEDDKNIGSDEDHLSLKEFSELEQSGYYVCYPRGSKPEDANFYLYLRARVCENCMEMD

B1: TR01H022-E22Hh/none-Hi-Kn010G3/L0000-k0 (antibody, human IgG1, kappa, L234A L235A, N297A)
heavy: QVQLVESGGGLVQPGGSLRLSCAASGFTFSNAWMHWVRQAPGKGLEWVAQIKGKSQNYATYYAPSVKGRFTISRADSKNSIYLQMNSLKTEDTAVYYCRYVHYSASYGVDIWGQGTTVTVSSASTKGPSVFPLAPSSKSTSGGTAALGCLVKDYFPEPVTVSWNSGALTSGVHTFPAVLQSSGLYSLSSVVTVPSSSLGTQTYICNVNHKPSNTKVDKKVEPKSCDKTHTCPPCPAPEAAGGPSVFLFPPKPKDTLMISRTPEVTCVVVDVSHEDPEVKFNWYVDGVEVHNAKTKPREEQYASTYRVVSVLTVLHQDWLNGKEYKCKVSNKALPAPIEKTISKAKGQPREPQVYTLPPSRCELTKNQVSLSCAVKGFYPSDIAVEWESNGQPENNYKTTPPVLDSDGSFFLVSKLTVDKSRWQQGNVFSCSVMHEALHNHYTQKSLSLSPDYKDDDDK
chain: EPKSSDKTHTCPPCPAPELLGGPSVFLFPPKPKDTLMISRTPEVTCVVVDVSHEDPEVKFNWYVDGVEVHNAKTKPREEQYNSTYRVVSVLTVLHQDWLNGKEYKCKVSNKALPAPIEKTISKAKGQPREPQVCTLPPSRDELTKNQVSLWCLVKGFYPSDIAVEWESNGQPENNYKTTPPVLDSDGSFFLYSKLTVDKSRWQQGNVFSCSVMHEALHNRYTQKSLSLSP
light: DIVMTQSPLSLPVTPGEPASISCRSSQSLVHSNRNTYLHWYQQKPGQAPRLLIYKVSNRFSGVPDRFSGSGSGTDFTLKISRVEAEDVGVYYCGQGTQVPYTFGQGTKLEIKRTVAAPSVFIFPPSDEQLKSGTASVVCLLNNFYPREAKVQWKVDNALQSGNSQESVTEQDSKDSTYSLSSTLTLSKADYEKHKVYACEVTHQGLSSPVTKSFNRGEC
notes: one-arm antibody (single Fab) with Fab-less hinge-Fc chain Hi-Kn010G3
What is called Kd is the concentration at which binding is half-saturated. Read a low Kd as a tighter complex. Turning to B1, the dissociation constant (Kd) came out at 75.8 nM.

B2: TR01H031-E22Hh/none-Hi-Kn010G3/L0000-k0 (antibody, human IgG1, kappa, L234A L235A, N297A)
heavy: QVQLVESGGGVVQPGGSLRLSCAASGFTFSNAWMHWVRQAPGKGLEWVAQIKGKSNNYATYYAESVKGRFTISRADSKNSIYLQMNSLKTEDTAVYYCRYVHYSASYGVDIWGQGTTVTVSSASTKGPSVFPLAPSSKSTSGGTAALGCLVKDYFPEPVTVSWNSGALTSGVHTFPAVLQSSGLYSLSSVVTVPSSSLGTQTYICNVNHKPSNTKVDKKVEPKSCDKTHTCPPCPAPEAAGGPSVFLFPPKPKDTLMISRTPEVTCVVVDVSHEDPEVKFNWYVDGVEVHNAKTKPREEQYASTYRVVSVLTVLHQDWLNGKEYKCKVSNKALPAPIEKTISKAKGQPREPQVYTLPPSRCELTKNQVSLSCAVKGFYPSDIAVEWESNGQPENNYKTTPPVLDSDGSFFLVSKLTVDKSRWQQGNVFSCSVMHEALHNHYTQKSLSLSPDYKDDDDK
chain: EPKSSDKTHTCPPCPAPELLGGPSVFLFPPKPKDTLMISRTPEVTCVVVDVSHEDPEVKFNWYVDGVEVHNAKTKPREEQYNSTYRVVSVLTVLHQDWLNGKEYKCKVSNKALPAPIEKTISKAKGQPREPQVCTLPPSRDELTKNQVSLWCLVKGFYPSDIAVEWESNGQPENNYKTTPPVLDSDGSFFLYSKLTVDKSRWQQGNVFSCSVMHEALHNRYTQKSLSLSP
light: DIVMTQSPLSLPVTPGEPASISCRSSQSLVHSNRNTYLHWYQQKPGQAPRLLIYKVSNRFSGVPDRFSGSGSGTDFTLKISRVEAEDVGVYYCGQGTQVPYTFGQGTKLEIKRTVAAPSVFIFPPSDEQLKSGTASVVCLLNNFYPREAKVQWKVDNALQSGNSQESVTEQDSKDSTYSLSSTLTLSKADYEKHKVYACEVTHQGLSSPVTKSFNRGEC
notes: as for B1
On to B2, for which the dissociation constant Kd worked out at 75.5 nM.

B3: TR01H023-E22Hh/none-Hi-Kn010G3/L0000-k0 (antibody, human IgG1, kappa, L234A L235A, N297A)
heavy: QVQLVESGGGLVQPGGSLRLSCAASGFTFSNAWMHWVRQAPGKGLEWVAQIKGKSQNYATYYAESVKGRFTISRADSKNSIYLQMNSLKTEDTAVYYCRYVHYSASYGVDIWGQGTTVTVSSASTKGPSVFPLAPSSKSTSGGTAALGCLVKDYFPEPVTVSWNSGALTSGVHTFPAVLQSSGLYSLSSVVTVPSSSLGTQTYICNVNHKPSNTKVDKKVEPKSCDKTHTCPPCPAPEAAGGPSVFLFPPKPKDTLMISRTPEVTCVVVDVSHEDPEVKFNWYVDGVEVHNAKTKPREEQYASTYRVVSVLTVLHQDWLNGKEYKCKVSNKALPAPIEKTISKAKGQPREPQVYTLPPSRCELTKNQVSLSCAVKGFYPSDIAVEWESNGQPENNYKTTPPVLDSDGSFFLVSKLTVDKSRWQQGNVFSCSVMHEALHNHYTQKSLSLSPDYKDDDDK
chain: EPKSSDKTHTCPPCPAPELLGGPSVFLFPPKPKDTLMISRTPEVTCVVVDVSHEDPEVKFNWYVDGVEVHNAKTKPREEQYNSTYRVVSVLTVLHQDWLNGKEYKCKVSNKALPAPIEKTISKAKGQPREPQVCTLPPSRDELTKNQVSLWCLVKGFYPSDIAVEWESNGQPENNYKTTPPVLDSDGSFFLYSKLTVDKSRWQQGNVFSCSVMHEALHNRYTQKSLSLSP
light: DIVMTQSPLSLPVTPGEPASISCRSSQSLVHSNRNTYLHWYQQKPGQAPRLLIYKVSNRFSGVPDRFSGSGSGTDFTLKISRVEAEDVGVYYCGQGTQVPYTFGQGTKLEIKRTVAAPSVFIFPPSDEQLKSGTASVVCLLNNFYPREAKVQWKVDNALQSGNSQESVTEQDSKDSTYSLSSTLTLSKADYEKHKVYACEVTHQGLSSPVTKSFNRGEC
notes: as for B1
Take B3: the dissociation constant (Kd) stood at 79.4 nM.

B4: TR01H024-E22Hh/none-Hi-Kn010G3/L0000-k0 (antibody, human IgG1, kappa, L234A L235A, N297A)
heavy: QVQLVESGGGLVQPGGSLRLSCAASGFTFSNAWMHWVRQAPGKGLEWVAQIKGKSQNYATYYAESVKGRFTISRADSKNSIYLQMNSLKTEDTAVYYCRYVHYSASYGVDAWGQGTTVTVSSASTKGPSVFPLAPSSKSTSGGTAALGCLVKDYFPEPVTVSWNSGALTSGVHTFPAVLQSSGLYSLSSVVTVPSSSLGTQTYICNVNHKPSNTKVDKKVEPKSCDKTHTCPPCPAPEAAGGPSVFLFPPKPKDTLMISRTPEVTCVVVDVSHEDPEVKFNWYVDGVEVHNAKTKPREEQYASTYRVVSVLTVLHQDWLNGKEYKCKVSNKALPAPIEKTISKAKGQPREPQVYTLPPSRCELTKNQVSLSCAVKGFYPSDIAVEWESNGQPENNYKTTPPVLDSDGSFFLVSKLTVDKSRWQQGNVFSCSVMHEALHNHYTQKSLSLSPDYKDDDDK
chain: EPKSSDKTHTCPPCPAPELLGGPSVFLFPPKPKDTLMISRTPEVTCVVVDVSHEDPEVKFNWYVDGVEVHNAKTKPREEQYNSTYRVVSVLTVLHQDWLNGKEYKCKVSNKALPAPIEKTISKAKGQPREPQVCTLPPSRDELTKNQVSLWCLVKGFYPSDIAVEWESNGQPENNYKTTPPVLDSDGSFFLYSKLTVDKSRWQQGNVFSCSVMHEALHNRYTQKSLSLSP
light: DIVMTQSPLSLPVTPGEPASISCRSSQSLVHSNRNTYLHWYQQKPGQAPRLLIYKVSNRFSGVPDRFSGSGSGTDFTLKISRVEAEDVGVYYCGQGTQVPYTFGQGTKLEIKRTVAAPSVFIFPPSDEQLKSGTASVVCLLNNFYPREAKVQWKVDNALQSGNSQESVTEQDSKDSTYSLSSTLTLSKADYEKHKVYACEVTHQGLSSPVTKSFNRGEC
notes: as for B1
As for B4, the affinity, expressed as Kd, was 108 nM.

B5: TR01H035-E22Hh/none-Hi-Kn010G3/L0000-k0 (antibody, human IgG1, kappa, L234A L235A, N297A)
heavy: QVQLVESGGGLVQPGRSLRLSCAASGFTFSNAWMHWVRQAPGKGLEWVAQIKGKSQNYATYYAESVKGRFTISRADSKNSIYLQMNSLKTEDTAVYYCRYVHYSASYGVDYWGQGTTVTVSSASTKGPSVFPLAPSSKSTSGGTAALGCLVKDYFPEPVTVSWNSGALTSGVHTFPAVLQSSGLYSLSSVVTVPSSSLGTQTYICNVNHKPSNTKVDKKVEPKSCDKTHTCPPCPAPEAAGGPSVFLFPPKPKDTLMISRTPEVTCVVVDVSHEDPEVKFNWYVDGVEVHNAKTKPREEQYASTYRVVSVLTVLHQDWLNGKEYKCKVSNKALPAPIEKTISKAKGQPREPQVYTLPPSRCELTKNQVSLSCAVKGFYPSDIAVEWESNGQPENNYKTTPPVLDSDGSFFLVSKLTVDKSRWQQGNVFSCSVMHEALHNHYTQKSLSLSPDYKDDDDK
chain: EPKSSDKTHTCPPCPAPELLGGPSVFLFPPKPKDTLMISRTPEVTCVVVDVSHEDPEVKFNWYVDGVEVHNAKTKPREEQYNSTYRVVSVLTVLHQDWLNGKEYKCKVSNKALPAPIEKTISKAKGQPREPQVCTLPPSRDELTKNQVSLWCLVKGFYPSDIAVEWESNGQPENNYKTTPPVLDSDGSFFLYSKLTVDKSRWQQGNVFSCSVMHEALHNRYTQKSLSLSP
light: DIVMTQSPLSLPVTPGEPASISCRSSQSLVHSNRNTYLHWYQQKPGQAPRLLIYKVSNRFSGVPDRFSGSGSGTDFTLKISRVEAEDVGVYYCGQGTQVPYTFGQGTKLEIKRTVAAPSVFIFPPSDEQLKSGTASVVCLLNNFYPREAKVQWKVDNALQSGNSQESVTEQDSKDSTYSLSSTLTLSKADYEKHKVYACEVTHQGLSSPVTKSFNRGEC
notes: as for B1
B5: binding was characterised by a dissociation constant (Kd) of 84.9 nM.

B6: TR01H034-E22Hh/none-Hi-Kn010G3/L0000-k0 (antibody, human IgG1, kappa, L234A L235A, N297A)
heavy: QVQLVESGGGLVQPGRSLRLSCAASGFTFSNAWMHWVRQAPGKGLEWVAQIKGKSQNYATYYAESVKGRFTISRADSKNSIYLQMNSLKTEDTAVYYCRYVHYSASYGVDAWGQGTTVTVSSASTKGPSVFPLAPSSKSTSGGTAALGCLVKDYFPEPVTVSWNSGALTSGVHTFPAVLQSSGLYSLSSVVTVPSSSLGTQTYICNVNHKPSNTKVDKKVEPKSCDKTHTCPPCPAPEAAGGPSVFLFPPKPKDTLMISRTPEVTCVVVDVSHEDPEVKFNWYVDGVEVHNAKTKPREEQYASTYRVVSVLTVLHQDWLNGKEYKCKVSNKALPAPIEKTISKAKGQPREPQVYTLPPSRCELTKNQVSLSCAVKGFYPSDIAVEWESNGQPENNYKTTPPVLDSDGSFFLVSKLTVDKSRWQQGNVFSCSVMHEALHNHYTQKSLSLSPDYKDDDDK
chain: EPKSSDKTHTCPPCPAPELLGGPSVFLFPPKPKDTLMISRTPEVTCVVVDVSHEDPEVKFNWYVDGVEVHNAKTKPREEQYNSTYRVVSVLTVLHQDWLNGKEYKCKVSNKALPAPIEKTISKAKGQPREPQVCTLPPSRDELTKNQVSLWCLVKGFYPSDIAVEWESNGQPENNYKTTPPVLDSDGSFFLYSKLTVDKSRWQQGNVFSCSVMHEALHNRYTQKSLSLSP
light: DIVMTQSPLSLPVTPGEPASISCRSSQSLVHSNRNTYLHWYQQKPGQAPRLLIYKVSNRFSGVPDRFSGSGSGTDFTLKISRVEAEDVGVYYCGQGTQVPYTFGQGTKLEIKRTVAAPSVFIFPPSDEQLKSGTASVVCLLNNFYPREAKVQWKVDNALQSGNSQESVTEQDSKDSTYSLSSTLTLSKADYEKHKVYACEVTHQGLSSPVTKSFNRGEC
notes: as for B1
B6 displayed a Kd of 91.1 nM.
